Legend:
integrin α11/β1 = target: T1, integrin α11/β1 (Homo sapiens, UniProt P05556+Q9UKX5); assay: FAK phosphorylation in HEK293T cells with forced expression of integrin α11/β1; assay type: cell-based
T1 construct: expressed in transfected cells; host or cells: HEK293T
Procedure: 100 nM irisin was incubated with 5 nM indicated his-tag integrins followed by immunoprecipitation using Ni-NTA agaroses. Precipitated integrins and co-precipitated irisin were analyzed by immunoblot analysis. […] HEK293T cells were seeded and incubated until 50% cell density. The cells were transfected with 0.1 μg plasmids of indicated integrins. After 48 hours, the cells were re-split to indicated dose of vitronectin-coated plates. Cells were incubated with culture medium for 3 hours. Cells were lysed to detect the indicated protein level using immunoblot analysis. FIG. 15C and FIG. 15D show the immunoblot data. Cells were treated and analyzed as FIG. 14B except using plasmids encoding integrin α5/β1 or integrin α11/β1 (FIG. 15C) integrin αV/β1(FIG. 15D).
HEK293T cells were set up for experiments at 1×10^5 cells per well in 6 well plate. On day 2, cells were transiently transfected with the indicated plasmids with FuGENE® 6 reagent (Roche Applied Science) according to the manufacturer's protocol. […]
Cells were harvested in RIPA buffer containing protease-inhibitor cocktail and phosphataseinhibitor cocktail. […] Protein levels were analyzed via western blot using indicated antibody. […] Protein levels were analyzed using western blot against indicated antibody.

epididymal fat (eWAT) = assay: Irisin injection in mice: thermogenic and creatine cycle gene mRNA in epididymal fat; assay type: in vivo; conditions: irisin injections 6 days
Procedure: Eight week old mice were injected with indicated dose of irisin or 1 mg/kg CL316243 for 6 days. Epididymal fats (eWAT) were collected and indicated genes mRNA level was analyzed by qPCR. GATM is the first and rate-limiting step of creatine synthesis (Sandell et al. (2003) Proc. Natl. Acad. Sci. U.S.A. 100:4622-4627).
Certain materials and methods were used to generate the results described herein. For example, the data shown in FIG. 1A resulted from MLO-Y4 (an osteocyte-like cell line) cells treated with the indicated concentration of irisin and hydrogen peroxide for 4 hours. Cells were stained with Hoechst 33342 (ThermoFisher Scientific, catalog number H3570) and Eth-D1 (ThermoFisher Scientific, catalog number E1169) and analyzed to determine the percentage of cell death using ImageJ. […] Co-precipitated irisin was analyzed by immunoblot analysis against flag tag (Sigma Aldrich, catalog number A8592). The data shown in FIGS. 5A and 5B were generated from MLO-Y4 cells treated and analyzed as in the experiments used to generate the data shown in FIG. 2D, except that pre-treatment of 100 nM RGDS (FIG. 5A) or echistatin (R & D Systems Inc., catalog number 3202/100U) (FIG. 5B) for 10 minutes was performed before irisin treatment. […] Sclerostin mRNA level was analyzed by qPCR (FIG. 7A). […]

T1 sequence (Q9UKX5 23-1188): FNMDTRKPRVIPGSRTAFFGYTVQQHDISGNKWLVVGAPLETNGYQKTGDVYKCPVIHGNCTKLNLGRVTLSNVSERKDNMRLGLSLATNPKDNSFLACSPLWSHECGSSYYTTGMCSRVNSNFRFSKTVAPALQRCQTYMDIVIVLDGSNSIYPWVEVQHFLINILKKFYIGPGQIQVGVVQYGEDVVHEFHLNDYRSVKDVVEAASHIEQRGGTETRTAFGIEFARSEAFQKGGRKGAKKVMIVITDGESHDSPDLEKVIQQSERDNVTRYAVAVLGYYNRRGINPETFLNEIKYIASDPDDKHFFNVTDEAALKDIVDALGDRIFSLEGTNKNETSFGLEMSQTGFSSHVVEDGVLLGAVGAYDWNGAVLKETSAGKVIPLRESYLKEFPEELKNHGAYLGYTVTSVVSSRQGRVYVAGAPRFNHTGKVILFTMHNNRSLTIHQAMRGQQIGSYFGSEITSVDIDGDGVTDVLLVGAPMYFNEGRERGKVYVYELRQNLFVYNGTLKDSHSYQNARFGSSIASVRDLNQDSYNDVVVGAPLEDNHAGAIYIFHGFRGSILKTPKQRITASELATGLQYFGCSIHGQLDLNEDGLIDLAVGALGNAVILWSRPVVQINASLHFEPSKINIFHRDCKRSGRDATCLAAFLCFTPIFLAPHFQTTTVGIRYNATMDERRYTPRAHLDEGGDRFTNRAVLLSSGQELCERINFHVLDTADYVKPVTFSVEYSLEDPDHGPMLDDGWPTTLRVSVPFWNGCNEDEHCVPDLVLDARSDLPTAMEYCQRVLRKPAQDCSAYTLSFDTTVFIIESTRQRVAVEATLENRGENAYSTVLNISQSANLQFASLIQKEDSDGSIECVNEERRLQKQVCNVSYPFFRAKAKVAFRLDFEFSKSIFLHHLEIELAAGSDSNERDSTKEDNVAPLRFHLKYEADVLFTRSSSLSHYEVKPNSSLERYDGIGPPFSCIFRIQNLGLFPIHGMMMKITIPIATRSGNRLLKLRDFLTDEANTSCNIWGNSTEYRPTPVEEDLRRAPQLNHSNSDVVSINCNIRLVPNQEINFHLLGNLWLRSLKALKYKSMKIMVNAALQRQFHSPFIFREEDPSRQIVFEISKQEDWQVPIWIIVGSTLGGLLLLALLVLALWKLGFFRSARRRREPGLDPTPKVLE
T1 sequence (P05556 21-798): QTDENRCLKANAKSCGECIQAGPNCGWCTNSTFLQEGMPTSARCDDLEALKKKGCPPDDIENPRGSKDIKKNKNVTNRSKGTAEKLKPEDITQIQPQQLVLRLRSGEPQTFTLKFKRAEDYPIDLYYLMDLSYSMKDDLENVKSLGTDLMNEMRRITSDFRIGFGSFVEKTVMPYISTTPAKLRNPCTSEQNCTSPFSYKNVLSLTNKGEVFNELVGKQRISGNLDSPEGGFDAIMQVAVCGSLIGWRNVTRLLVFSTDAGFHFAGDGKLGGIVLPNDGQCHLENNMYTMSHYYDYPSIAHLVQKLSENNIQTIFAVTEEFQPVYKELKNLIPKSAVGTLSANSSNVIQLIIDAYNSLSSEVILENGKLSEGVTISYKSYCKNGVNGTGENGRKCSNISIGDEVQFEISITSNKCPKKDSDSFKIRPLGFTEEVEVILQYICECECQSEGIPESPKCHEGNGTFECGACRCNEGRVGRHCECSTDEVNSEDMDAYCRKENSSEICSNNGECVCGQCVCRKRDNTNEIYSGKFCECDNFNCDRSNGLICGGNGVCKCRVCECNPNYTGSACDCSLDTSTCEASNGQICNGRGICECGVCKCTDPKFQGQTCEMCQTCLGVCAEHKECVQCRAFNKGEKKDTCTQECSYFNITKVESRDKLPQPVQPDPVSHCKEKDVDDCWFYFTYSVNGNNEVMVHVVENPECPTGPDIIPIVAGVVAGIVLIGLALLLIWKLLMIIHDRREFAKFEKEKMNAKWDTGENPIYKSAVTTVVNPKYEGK

B1: irisin: secreted cleaved form of FNDC5; recombinant human/mouse irisin with C-terminal his tag produced in HEK293 cells (protein)
chain: DSPSAPVNVTVRHLKANSAVVSWDVLEDEVVIGFAISQQKKDVRMLRFIQEVNTTTRSCALWDLEEDTEYIVHVQAISIQGQSPASEPVLFKTPREAEKMASKNKDEVTMKE
modifications: left off: small tags and cut ends
notes: secreted cleaved form of FNDC5; recombinant human/mouse irisin with C-terminal his tag produced in HEK293 cells
- phosphorylation of FAK upon irisin treatment (integrin α11/β1): little phosphorylation of FAK above background
- expression of futile creatine cycle genes (GATM, CKMT2, CKB) (epididymal fat (eWAT)): also increased expression
- mRNAs of classical thermogenic pathway genes (UCP1, DIO 2) (epididymal fat (eWAT)): increased expression

Source: patent publication US20210063414A1, “METHODS FOR PREVENTING AND/OR TREATING BONE LOSS CONDITIONS BY MODULATING IRISIN” (Dana-Farber Cancer Institute, Inc., priority 2018, published 2021)
